“Also recorded” adds a separate entry of the source.
Legend:
[1] = system: Flt-1 receptor; assay: Flt-1 receptor binding ELISA (inhibition of biotinylated native VEGF binding to Flt-IgG); settings: second figure of the cell, ratio to native VEGF (8-109)
Procedure: (§1) Receptor binding assays were performed in 96-well immunoplates (Maxisorp, Nunc-Immunoplate, Nalge Nunc International, Rochester, N.Y.). Each well was coated with 100 μl of a solution containing 2 μg/ml of rabbit F(ab′)2 to human IgG Fc (Jackson ImmunoResearch, West Grove, Pa.) in 50 mM carbonate buffer at pH 9.6 and incubated at 4° C. overnight. The supernatant was then discarded, the wells were washed three times in washing buffer (0.05% Tween 20 in PBS), and the plate was blocked (150 μl per well) with block buffer (0.5% BSA, 0.01% thimerosal in PBS) at room temperature for one hour. The supernatant was discarded, and the wells were washed.
The wells were filled with 100 μl of a solution containing Flt-IgG (a chimeric Flt-human Fc molecule) at 50 ng/ml in assay buffer (0.5% BSA, 0.05% Tween 20 in PBS). The wells were incubated at room temperature for 1 hour and then washed three times in wash buffer (0.05% Tween 20 in PBS).
(§2) Aliquots of the mixture (100 μl) were added to the precoated microtiter wells and the plate was incubated for 2 hours at room temperature. […] The wells were then incubated with 3, 3′, 5,5′-tetramethyl benzidine (0.2 g/liter, Kirkegaard & Perry Laboratories, Gaithersburg, Md.) for about 10 minutes at room temperature. Absorbance was read at 450 nm on a Vmax plate reader (Molecular Devices, Menlo Park, Calif.).
(§3) Titration curves were fit with a four-parameter nonlinear regression curve-fitting program (KaleidaGraph, Synergy Software, Reading, Pa.).

[2] = biological target: KDR receptor (Homo sapiens, UniProt P35968); assay: KDR receptor binding ELISA (inhibition of biotinylated native VEGF (8-109) binding); settings: second figure of the cell, ratio to native VEGF (8-109)
Procedure: as §1, with “containing 8” for “containing 2”, “of a monoclonal antibody” for “of rabbit F(ab′)2”, “to KDR known as MAKD5 (Genentech, South San Francisco, Calif.)” for “to human IgG Fc (Jackson ImmunoResearch, West Grove, Pa.)”, “was” for “was then”
as §2, with “of this” for “of the”, “for 1 hour” for “for 2 hours”, “(0.2 gram/liter;” for “(0.2 g/liter,”
as §3

[3] = biological target: Flt-1 receptor (Homo sapiens, UniProt P17948); assay: RIA binding assay, FLT-1 receptor; settings: relative to Native VEGF 165
Description: The results are shown below in Table 6.

[4] = system: eNOS expression; assay: eNOS expression by Western blot in ACE cells; assay type: cell-based, bovine
Procedure: At the end of incubation, total cell lysates were prepared, and eNOS protein levels were determined by Western blot analysis.
Bovine adrenal cortex capillary endothelial cells (ACE) were prepared and maintained as previously described (Ferrara et.al., 1989 Biochem. Biophys. Res. Commun. 161:851–858). Briefly, cells were plated onto 6-well tissue culture plates (Costar) and grown in low glucose Dulbecco's modified Eagle's medium, supplemented with 2 mM […] (Life Technologies), 10% bovine calf serum (HyClone Lab., Inc.) and 100 μg/ml Penicillin/Streptomycin (Life Technologies). ACE cells were used between passages 4 and 8.
Medium was changed every 24 hours.
The methods for cell lysis and Western blot (WB) have been described in Shen et al., 1998 J. Biol. Chem. 273:29979–29985. A monoclonal anti-eNOS antibody was used at 1:2500 to probe eNOS protein. […] The protein bands were scanned by a densitometer and the relative intensities were quantified using IMAGEQUANT® software (Molecular Dynamics).
Confluent ACE cells were incubated with 500 pM rhVEGF. […] Equal amounts of protein were denatured under reducing conditions and separated in a 10% Novex mini gel and transferred to PVDF membrane. eNOS protein signals were visualized by ECL and quantified using densitometry.

Chain of KDR receptor (P35968 20-327 limits assumed): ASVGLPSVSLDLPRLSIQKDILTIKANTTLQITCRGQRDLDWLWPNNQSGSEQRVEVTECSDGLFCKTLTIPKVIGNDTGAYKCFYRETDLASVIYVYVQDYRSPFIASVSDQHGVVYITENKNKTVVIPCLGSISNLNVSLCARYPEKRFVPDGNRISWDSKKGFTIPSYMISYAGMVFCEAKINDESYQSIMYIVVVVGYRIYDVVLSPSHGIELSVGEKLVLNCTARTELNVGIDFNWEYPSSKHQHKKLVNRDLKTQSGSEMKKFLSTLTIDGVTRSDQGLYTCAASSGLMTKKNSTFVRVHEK
Chain of Flt-1 receptor (P17948 27-327 limits assumed): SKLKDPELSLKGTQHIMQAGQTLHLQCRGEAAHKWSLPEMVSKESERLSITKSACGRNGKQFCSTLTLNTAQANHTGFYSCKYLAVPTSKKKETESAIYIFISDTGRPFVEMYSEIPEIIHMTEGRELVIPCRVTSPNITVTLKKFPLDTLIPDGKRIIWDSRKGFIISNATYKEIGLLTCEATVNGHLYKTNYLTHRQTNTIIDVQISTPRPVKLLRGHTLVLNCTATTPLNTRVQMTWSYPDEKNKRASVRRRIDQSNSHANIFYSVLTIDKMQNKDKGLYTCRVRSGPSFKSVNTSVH
Chain of Flt-1 receptor (Homo sapiens, UniProt P17948) (P17948 27-1338): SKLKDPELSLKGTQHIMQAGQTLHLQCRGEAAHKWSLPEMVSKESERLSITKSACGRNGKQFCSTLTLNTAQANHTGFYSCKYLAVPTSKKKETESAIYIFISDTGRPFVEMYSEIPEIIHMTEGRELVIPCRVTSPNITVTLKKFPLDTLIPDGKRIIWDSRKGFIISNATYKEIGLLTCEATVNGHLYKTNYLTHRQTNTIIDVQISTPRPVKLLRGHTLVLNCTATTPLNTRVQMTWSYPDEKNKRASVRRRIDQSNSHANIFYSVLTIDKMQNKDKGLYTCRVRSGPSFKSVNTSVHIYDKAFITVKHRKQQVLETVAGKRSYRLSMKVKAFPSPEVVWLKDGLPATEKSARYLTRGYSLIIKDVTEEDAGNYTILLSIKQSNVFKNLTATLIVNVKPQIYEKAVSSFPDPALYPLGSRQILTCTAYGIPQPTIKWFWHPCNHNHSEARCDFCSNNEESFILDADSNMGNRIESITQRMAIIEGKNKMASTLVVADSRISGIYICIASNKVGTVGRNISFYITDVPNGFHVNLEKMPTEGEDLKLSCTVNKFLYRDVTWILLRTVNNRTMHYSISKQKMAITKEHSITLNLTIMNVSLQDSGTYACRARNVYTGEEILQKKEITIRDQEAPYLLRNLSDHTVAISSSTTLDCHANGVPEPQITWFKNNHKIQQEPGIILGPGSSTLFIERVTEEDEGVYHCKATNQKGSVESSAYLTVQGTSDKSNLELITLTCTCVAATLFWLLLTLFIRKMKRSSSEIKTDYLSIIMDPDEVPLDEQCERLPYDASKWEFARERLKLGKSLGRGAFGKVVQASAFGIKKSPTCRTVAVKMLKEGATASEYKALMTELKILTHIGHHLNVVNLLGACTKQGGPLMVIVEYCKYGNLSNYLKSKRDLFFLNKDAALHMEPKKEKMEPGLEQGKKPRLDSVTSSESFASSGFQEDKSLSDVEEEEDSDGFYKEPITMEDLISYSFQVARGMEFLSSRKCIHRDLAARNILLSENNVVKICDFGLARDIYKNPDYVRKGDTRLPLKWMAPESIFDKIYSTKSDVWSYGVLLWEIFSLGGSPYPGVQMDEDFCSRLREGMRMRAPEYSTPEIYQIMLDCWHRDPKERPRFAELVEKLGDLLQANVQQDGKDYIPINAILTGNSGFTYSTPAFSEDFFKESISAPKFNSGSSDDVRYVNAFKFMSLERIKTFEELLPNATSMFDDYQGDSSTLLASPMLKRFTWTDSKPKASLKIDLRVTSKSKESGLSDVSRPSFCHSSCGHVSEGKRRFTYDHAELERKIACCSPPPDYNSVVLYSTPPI

Row | Molecule | Relative Binding Affinity FLT-1 Receptor [1] | Relative Binding Affinity KDR Receptor [2] | other results
1 | PLGF: recombinant human placental growth factor (protein, UniProt P49763 19-221, looked up) Placenta growth factor: LPAVPPQQWALSAGNGSSEVEVVPFQEVWGRSYCRALERLVDVVSEYPSEVEHMFSPSCVSLLRCTGCCGDENLHCVPVETANVTMQLLKIRSGDRPSYVELTFSQHVRCECRHSPGRQSPDMPGDFRADAPSFLPPRRSLPMLFRMEWGCALTGSQSAVWPSSPVPEEIPRMHPGRNGKKQQRKPLREKMKPERCGDAVPRR | – | – | eNOS expression with VEGF forms and receptor-selective variants ([4]; equal concentrations, two days): had no effect; also recorded: did not
2 | TGF-beta2: recombinant human transforming growth factor (protein, UniProt P61812 303-414, looked up, Transforming growth factor beta-2) Transforming growth factor …: ALDAAYCFRNVQDNCCLRPLYIDFKRDLGWKWIHEPKGYNANFCAGACPYLWSSDTQHSRVLSLYNTINPEASASPCCVSQDLEPLTILYYIGKTPKIEQLSNMIVKSCKCS | – | – | eNOS expression with angiogenic factors ([4]; 500 pM, 2 days): reduced endogenous eNOS expression

Continued, in another order:

Row | Relative Binding Affinity FLT-1 Receptor [1] | Relative Binding Affinity KDR Receptor [2] | Molecule | other results
3 | />12000 | 4 nM/4 | LK-VRB-25s: VEGF (1-109) variant, D63S/L66R/M18E/Y21L/Q22R/Y25S (protein) APMAEGGGQNHHEVVKFEDVLRRSSCHPIETLVDIFQEYPDEIEYIFKPSCVPLMRCGGCCNSEGRECVPTEESNITMQIMRIKPHQGQHIGEMSFLQHNKCECRPKKD | –
4 | />25000 | 23 nM/23 | LK-VRB-26s: VEGF (1-109) variant, G65M/L66R/M18E/Y21L/Q22R/Y25S (protein) APMAEGGGQNHHEVVKFEDVLRRSSCHPIETLVDIFQEYPDEIEYIFKPSCVPLMRCGGCCNDEMRECVPTEESNITMQIMRIKPHQGQHIGEMSFLQHNKCECRPKKD | –
5 | – | 1 nM/1 | LK-VRB-1s*: VEGF (1-109) variant, M18E/Y21L/Q22R/Y25S (protein) APMAEGGGQNHHEVVKFEDVLRRSSCHPIETLVDIFQEYPDEIEYIFKPSCVPLMRCGGCCNDEGLECVPTEESNITMQIMRIKPHQGQHIGEMSFLQHNKCECRPKKD | Relative Binding Affinity FLT-1 Receptor [3]: 14,000
